Reference: the Immune Epitope Database (IEDB)

How the values were obtained:
HLA-A*03:01 [1] = test: IEDB peptide-MHC binding, purified MHC/competitive/fluorescence; ≥ and ≤ were set here for values at or beyond the usual limits of such assays; conditions: source organism: Vaccinia virus Copenhagen
HLA-A*02:01 [2] = test: as above; conditions: source organism: Vaccinia virus Copenhagen
HLA-B*15:01 [3] = test: as above; conditions: source organism: Vaccinia virus Copenhagen
HLA-A*01:01 [4] = test: as above
HLA-A*11:01 = test: as above; conditions: source organism: Vaccinia virus Copenhagen
HLA-A*31:01 [5] = test: IEDB peptide-MHC binding, purified MHC/competitive/radioactivity; filed as Kd, often an IC50 or EC50 that approximates it; ≥ and ≤ were set here for values at or beyond the usual limits of such assays; conditions: source organism: Vaccinia virus WR
HLA-A*33:01 = test: as above; conditions: source organism: Vaccinia virus WR
HLA-A*68:01 = test: as above; conditions: source organism: Vaccinia virus WR
HLA-B*07:02 [6] = test: IEDB peptide-MHC binding, purified MHC/direct/fluorescence; filed as Kd, often an IC50 or EC50 that approximates it; ≥ and ≤ were set here for values at or beyond the usual limits of such assays; conditions: source organism: Vibrio parahaemolyticus
HLA-B*15:01 [7] = test: as above; conditions: source organism: Vibrio parahaemolyticus AQ3810
HLA-B*51:01 = test: as above; conditions: source organism: Vibrio parahaemolyticus
HLA-C*14:02 = test: as above
HLA-B*58:01 = test: as above
HLA-B*57:01 = test: as above
HLA-A*03:01 [8] = test: as above; conditions: source organism: Mammarenavirus juninense
HLA-A*02:01 [9] = test: as above; conditions: source organism: Mammarenavirus juninense
HLA-B*18:01 = test: as above; conditions: source organism: Mammarenavirus juninense
HLA-B*44:02 = test: as above; conditions: source organism: Mammarenavirus juninense
HLA-A*02:11 = test: as above; conditions: source organism: Mammarenavirus juninense
HLA-A*31:01 [10] = test: as above; conditions: source organism: Mammarenavirus juninense
HLA-A*01:01 [11] = test: as above; conditions: source organism: Mammarenavirus juninense
HLA-B*39:01 = test: as above; conditions: source organism: Mammarenavirus juninense
HLA-A*29:02 = test: as above; conditions: source organism: Mammarenavirus juninense
HLA-B*27:05 = test: as above; conditions: source organism: Mammarenavirus juninense
HLA-C*03:03 = test: as above; conditions: source organism: Mammarenavirus juninense
HLA-B*07:02 [12] = test: IEDB peptide-MHC binding, purified MHC/competitive/fluorescence; filed as Kd, often an IC50 or EC50 that approximates it; ≥ and ≤ were set here for values at or beyond the usual limits of such assays; conditions: source organism: Influenza A virus (A/chicken/Scotland/1959(H5N1))
HLA-B*46:01 = test: as above; conditions: source organism: Bacillus anthracis str. A0488
HLA-C*15:02 = test: IEDB peptide-MHC binding, purified MHC/direct/fluorescence; filed as Kd, often an IC50 or EC50 that approximates it; ≥ and ≤ were set here for values at or beyond the usual limits of such assays; conditions: source organism: Bacillus anthracis str. A0488
[13] = source organism: Cryptosporidium parvum
[14] = source organism: Mammarenavirus juninense

## KLNGAMVEY
HLA-A*03:01 [1]
  IC50: 11.6 µM
HLA-A*02:01 [2]
  IC50: ≥ 95.4 µM
HLA-B*15:01 [3]
  IC50: 12.2 µM
HLA-A*01:01 [4]; source organism: Vaccinia virus Copenhagen
  IC50: ≥ 192 µM
HLA-A*11:01
  IC50: 7.97 µM
HLA-A*31:01 [5]
  Kd: 1.18 µM
HLA-A*33:01
  Kd: 1.96 µM
HLA-A*68:01
  Kd: 0.00597 µM

## KVAQAAAAM
HLA-B*07:02 [6]
  Kd: 0.034 µM
HLA-B*15:01 [7]
  Kd: 0.029 µM
HLA-B*51:01
  Kd: ≥ 20 µM
HLA-C*14:02; source organism: Vibrio antiquarius
  Kd: 0.072 µM

## KAFPLIQNM
HLA-B*58:01; [13]
  Kd: 0.0124 µM
HLA-B*57:01; [13]
  Kd: 0.124 µM
HLA-C*14:02; source organism: Cryptosporidium parvum Iowa II
  Kd: 0.368 µM

## ASSEPHCAL
HLA-A*03:01 [8]
  Kd: ≥ 20 µM
HLA-A*02:01 [9]
  Kd: ≥ 20 µM
HLA-B*18:01
  Kd: ≥ 20 µM
HLA-B*44:02
  Kd: ≥ 20 µM
HLA-A*02:11
  Kd: 0.04 µM
HLA-A*31:01 [10]
  Kd: ≥ 20 µM
HLA-A*01:01 [11]
  Kd: ≥ 20 µM
HLA-B*58:01; [14]
  Kd: ≥ 20 µM
HLA-B*39:01
  Kd: 1.07 µM
HLA-A*29:02
  Kd: ≥ 20 µM
HLA-B*27:05
  Kd: ≥ 20 µM
HLA-C*03:03
  Kd: ≤ 0.001 µM
HLA-B*57:01; [14]
  Kd: ≥ 20 µM

## VVDPDDGSY
HLA-A*01:01 [4]; source organism: Zaire ebolavirus
  IC50: 44.1 µM

## SPYRTLMSCPI
HLA-B*07:02 [12]
  Kd: 0.0036 µM

## LMAFSTGPF
HLA-B*46:01
  Kd: 2.76 µM
HLA-C*15:02
  Kd: ≥ 20 µM
